This experiment addresses T1, mouse FLT3 receptor (mouse, UniProt Q00342 28-1000).
T1 construct: whole, on cells; Endogenous receptor of the NSG host mouse, knocked out in the NSG Flt3null-Tg(Hu-FLT3L) line; also called CD135
T1 sequence (looked up): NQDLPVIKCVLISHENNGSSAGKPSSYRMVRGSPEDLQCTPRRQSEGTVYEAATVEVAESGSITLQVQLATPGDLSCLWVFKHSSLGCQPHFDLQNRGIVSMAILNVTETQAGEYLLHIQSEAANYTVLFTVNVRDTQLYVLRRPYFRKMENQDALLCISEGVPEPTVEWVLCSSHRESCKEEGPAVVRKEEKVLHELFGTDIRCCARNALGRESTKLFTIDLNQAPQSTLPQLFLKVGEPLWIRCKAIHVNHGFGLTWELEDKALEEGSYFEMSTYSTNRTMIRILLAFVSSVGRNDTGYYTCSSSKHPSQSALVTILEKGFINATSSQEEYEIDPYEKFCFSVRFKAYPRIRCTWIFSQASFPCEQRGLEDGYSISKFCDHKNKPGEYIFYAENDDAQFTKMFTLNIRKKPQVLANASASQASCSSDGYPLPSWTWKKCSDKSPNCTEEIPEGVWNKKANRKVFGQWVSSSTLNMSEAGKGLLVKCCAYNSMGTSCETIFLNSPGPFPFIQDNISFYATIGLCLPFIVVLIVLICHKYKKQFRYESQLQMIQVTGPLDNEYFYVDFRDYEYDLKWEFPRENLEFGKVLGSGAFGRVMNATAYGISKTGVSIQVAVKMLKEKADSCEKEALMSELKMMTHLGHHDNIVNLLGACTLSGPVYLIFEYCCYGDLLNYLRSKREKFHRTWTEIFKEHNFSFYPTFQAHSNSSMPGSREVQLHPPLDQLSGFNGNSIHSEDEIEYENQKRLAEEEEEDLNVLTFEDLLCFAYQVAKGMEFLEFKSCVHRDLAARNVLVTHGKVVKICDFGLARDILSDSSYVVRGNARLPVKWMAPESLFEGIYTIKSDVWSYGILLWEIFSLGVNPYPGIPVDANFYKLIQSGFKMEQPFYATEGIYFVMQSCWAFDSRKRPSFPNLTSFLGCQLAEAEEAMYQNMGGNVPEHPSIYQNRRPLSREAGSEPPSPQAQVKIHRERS
Put plainly: no direct binding assay; inferred from in vivo mouse genetics (human FLT3L transgenic NSG mice with and without knock-out of mouse Flt3).

B1: human FLT3 ligand (FLT3L) (ligand, UniProt P49771 27-184, looked up)
chain: TQDCSFQHSPISSDFAVKIRELSDYLLQDYPVTVASNLQDEELCGGLWRLVLAQRWMERLKTVAGSKMQGLLERVNTEIHFVTKCAFQPPPSCLRFVQTNISRLLQETSEQLVALKPWITRQNFSRCLELQCQPDSSTLPPPWSPRPLEATAPTAPQP
notes: Expressed in vivo from a 13.8 kb genomic BAC fragment and circulating in mouse serum; also called Hu-FLT3L
With B1, the binding result is reported as “binds”.

Values taken from US20220136002A1 (JACKSON LABORATORY, published 2022).
